Test results: article PMC8986121

Assays:
Glu59 = experiment: NMR; settings: 300 K, not stated (50 mM phosphate buffers), 50 mM phosphate buffers at different pH, micelle-bound
Glu49 = experiment: NMR; settings: 300 K, not stated (50 mM phosphate buffers), 50 mM phosphate buffers at different pH, micelle-bound
[1] = L2 peptide free (no L1 or M peptide)
[2] = L2 peptide in the presence of the GldL TMH1 (L1) and GldM TMH (M) peptides at 1:1:1 molar ratio

## KKVMLSIGLLTEALIFALSAFEPVKK
Glu59; [1]
  pKa: 5.65 ± 0.13
Glu59; [2]
  pKa: 5.83 ± 0.02
Glu49; [1]
  pKa: 5.54 ± 0.04
Glu49; [2]
  pKa: 5.83 ± 0.02
